This passage reports relative binding activity results from patent US20200199241A1 (Chugai, published 2020).

Common to all, as to experiment: SPR (Biacore);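 further: antibody variants captured on sensor chip, Fcγ receptor flowed over at 25 °C, bound receptor normalized to amount of captured antibody, expressed relative to reference antibody set as 100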
In general terms: Surface plasmon resonance follows binding to a sensor surface in real time, without labels.

Assay [1] deals with T1, human FcγRIIIa(F) (human, UniProt P08637 17-208, limits assumed).
T1 construct: also called FcgRIIIaF; allotype F158

The target of assay [2] is T2, human FcγRIIa(R) (human, UniProt P12318 36-217).
T2 construct: also called FcgRIIaR; FcγRIIa type R
T2 chain: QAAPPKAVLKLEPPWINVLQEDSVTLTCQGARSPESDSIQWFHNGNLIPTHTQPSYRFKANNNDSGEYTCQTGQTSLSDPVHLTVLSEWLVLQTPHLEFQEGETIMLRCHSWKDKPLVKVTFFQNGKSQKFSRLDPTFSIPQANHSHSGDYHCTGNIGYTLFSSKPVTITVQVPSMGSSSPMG

In assay [3] the target is T3, human FcγRIIa(H) (human, UniProt P12318 36-217).
T3 construct: also called FcgRIIaH; FcγRIIa type H
T3 sequence: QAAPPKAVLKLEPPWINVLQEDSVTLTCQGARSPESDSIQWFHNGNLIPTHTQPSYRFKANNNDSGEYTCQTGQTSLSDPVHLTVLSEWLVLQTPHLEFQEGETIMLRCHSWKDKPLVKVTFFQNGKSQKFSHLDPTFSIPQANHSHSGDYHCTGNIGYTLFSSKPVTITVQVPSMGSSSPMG

Assay [4] concerns the target T4, human FcγRIa (human, UniProt P12314 16-292, limits assumed).
T4 construct: also called FcgRIa; FcγRI (CD64)

For assay [5], the target named is T5, human FcγRIIb (human, UniProt P31994 43-217, limits assumed).
T5 construct: also called FcgRIIb
T5 sequence: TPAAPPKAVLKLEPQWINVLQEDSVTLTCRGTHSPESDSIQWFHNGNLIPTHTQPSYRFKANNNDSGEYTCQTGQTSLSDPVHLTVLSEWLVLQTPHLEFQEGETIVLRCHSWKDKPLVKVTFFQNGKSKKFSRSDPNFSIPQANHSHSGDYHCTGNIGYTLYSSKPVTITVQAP

T4 sequence (P12314 16-292 limits assumed): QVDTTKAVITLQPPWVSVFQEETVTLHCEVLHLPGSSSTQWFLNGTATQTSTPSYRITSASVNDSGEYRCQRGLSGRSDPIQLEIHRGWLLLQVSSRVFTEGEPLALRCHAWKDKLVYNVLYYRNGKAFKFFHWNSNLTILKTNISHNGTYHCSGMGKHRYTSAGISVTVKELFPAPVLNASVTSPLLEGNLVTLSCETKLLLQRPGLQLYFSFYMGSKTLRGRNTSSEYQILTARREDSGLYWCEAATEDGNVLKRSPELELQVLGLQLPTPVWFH
T1 sequence (P08637 other isoform, or with tags, fused parts or gaps limits assumed): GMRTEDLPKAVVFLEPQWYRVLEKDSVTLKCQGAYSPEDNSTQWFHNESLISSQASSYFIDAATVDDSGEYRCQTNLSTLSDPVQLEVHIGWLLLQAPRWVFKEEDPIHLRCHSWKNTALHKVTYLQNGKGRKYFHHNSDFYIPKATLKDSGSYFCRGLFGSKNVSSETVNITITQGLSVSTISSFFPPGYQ

B1: GpH7-B3 variant L235R/GpL16-k0 (antibody, human IgG1)
heavy: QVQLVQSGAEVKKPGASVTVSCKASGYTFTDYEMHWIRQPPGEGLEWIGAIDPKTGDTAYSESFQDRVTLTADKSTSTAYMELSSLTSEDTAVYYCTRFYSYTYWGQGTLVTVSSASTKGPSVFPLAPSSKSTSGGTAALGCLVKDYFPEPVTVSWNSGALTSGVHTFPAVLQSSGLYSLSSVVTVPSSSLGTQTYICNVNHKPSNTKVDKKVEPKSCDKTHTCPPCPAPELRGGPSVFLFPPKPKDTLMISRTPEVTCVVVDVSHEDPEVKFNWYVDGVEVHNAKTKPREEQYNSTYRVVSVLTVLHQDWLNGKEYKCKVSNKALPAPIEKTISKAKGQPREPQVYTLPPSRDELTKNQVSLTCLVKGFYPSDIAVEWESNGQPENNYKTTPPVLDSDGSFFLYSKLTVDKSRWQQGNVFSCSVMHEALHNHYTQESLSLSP
light: DIVMTQSPLSLPVTPGEPASISCQASESLVHSNRNTYLHWYLQKPGQSPQLLIYKVSNRFSGVPDRFSGSGSGTDFTLKISRVEAEDVGVYYCSQNTHVPPTFGQGTKVEIE
notes: copies: 2 + 2
With B1, the relative binding activity is 9 % of GpH7-B3/GpL16-k0 in assay [1]; -4 % of GpH7-B3/GpL16-k0 in assay [2]; 1 % of GpH7-B3/GpL16-k0 in assay [3]; 0 % of GpH7-B3/GpL16-k0 in assay [4]; -2 % of GpH7-B3/GpL16-k0 in assay [5].

B2: GpH7-B3 variant P238A/GpL16-k0 (antibody, human IgG1)
heavy: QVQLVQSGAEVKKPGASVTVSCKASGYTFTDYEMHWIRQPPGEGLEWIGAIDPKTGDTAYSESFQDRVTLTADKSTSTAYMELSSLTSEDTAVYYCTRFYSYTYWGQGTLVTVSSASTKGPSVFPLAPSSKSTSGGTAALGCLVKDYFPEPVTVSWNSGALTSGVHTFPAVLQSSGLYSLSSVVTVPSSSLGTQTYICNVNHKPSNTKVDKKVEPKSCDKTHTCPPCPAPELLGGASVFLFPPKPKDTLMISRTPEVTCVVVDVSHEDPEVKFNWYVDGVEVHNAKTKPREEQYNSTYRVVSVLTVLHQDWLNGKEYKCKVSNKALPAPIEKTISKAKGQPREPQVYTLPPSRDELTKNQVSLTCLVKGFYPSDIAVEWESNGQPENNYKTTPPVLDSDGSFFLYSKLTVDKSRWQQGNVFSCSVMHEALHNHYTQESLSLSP
light: DIVMTQSPLSLPVTPGEPASISCQASESLVHSNRNTYLHWYLQKPGQSPQLLIYKVSNRFSGVPDRFSGSGSGTDFTLKISRVEAEDVGVYYCSQNTHVPPTFGQGTKVEIE
notes: copies: 2 + 2
Consider B2, for which the relative binding activity in assay [1] was 5 % of GpH7-B3/GpL16-k0; in assay [2], 38 % of GpH7-B3/GpL16-k0; in assay [3], 15 % of GpH7-B3/GpL16-k0; in assay [4] it was 95 % of GpH7-B3/GpL16-k0; in assay [5] it was 26 % of GpH7-B3/GpL16-k0.

B3: GpH7-B3 variant L235S/GpL16-k0 (antibody, human IgG1)
heavy: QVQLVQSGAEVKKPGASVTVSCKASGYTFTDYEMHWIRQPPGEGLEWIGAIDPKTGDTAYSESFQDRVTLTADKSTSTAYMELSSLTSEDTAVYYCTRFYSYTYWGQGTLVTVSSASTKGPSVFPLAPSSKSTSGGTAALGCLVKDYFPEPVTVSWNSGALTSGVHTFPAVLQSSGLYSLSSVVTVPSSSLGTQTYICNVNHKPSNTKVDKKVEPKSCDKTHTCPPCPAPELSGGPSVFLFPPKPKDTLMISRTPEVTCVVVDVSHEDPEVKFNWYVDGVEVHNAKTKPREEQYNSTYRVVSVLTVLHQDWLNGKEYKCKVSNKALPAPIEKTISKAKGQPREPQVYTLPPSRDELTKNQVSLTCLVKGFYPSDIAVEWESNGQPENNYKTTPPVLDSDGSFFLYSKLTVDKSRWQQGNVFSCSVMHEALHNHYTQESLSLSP
light: DIVMTQSPLSLPVTPGEPASISCQASESLVHSNRNTYLHWYLQKPGQSPQLLIYKVSNRFSGVPDRFSGSGSGTDFTLKISRVEAEDVGVYYCSQNTHVPPTFGQGTKVEIE
notes: copies: 2 + 2
Take B3: the relative binding activity is 36 % of GpH7-B3/GpL16-k0 in assay [1]; 29 % of GpH7-B3/GpL16-k0 in assay [2]; 39 % of GpH7-B3/GpL16-k0 in assay [3]; 11 % of GpH7-B3/GpL16-k0 in assay [4]; 23 % of GpH7-B3/GpL16-k0 in assay [5].

B4: GpH7-B3 variant L235M/GpL16-k0 (antibody, human IgG1)
heavy: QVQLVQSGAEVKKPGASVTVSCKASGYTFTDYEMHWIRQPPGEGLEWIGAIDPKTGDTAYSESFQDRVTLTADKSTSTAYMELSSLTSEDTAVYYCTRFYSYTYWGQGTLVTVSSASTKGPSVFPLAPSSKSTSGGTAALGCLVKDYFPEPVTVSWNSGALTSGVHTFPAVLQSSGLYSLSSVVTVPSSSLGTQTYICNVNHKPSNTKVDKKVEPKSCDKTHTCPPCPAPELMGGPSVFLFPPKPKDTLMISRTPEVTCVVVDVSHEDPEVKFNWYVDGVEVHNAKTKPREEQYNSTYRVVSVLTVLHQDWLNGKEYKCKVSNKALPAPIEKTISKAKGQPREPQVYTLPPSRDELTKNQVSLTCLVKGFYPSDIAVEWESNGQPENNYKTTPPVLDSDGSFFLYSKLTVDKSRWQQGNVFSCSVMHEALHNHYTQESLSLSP
light: DIVMTQSPLSLPVTPGEPASISCQASESLVHSNRNTYLHWYLQKPGQSPQLLIYKVSNRFSGVPDRFSGSGSGTDFTLKISRVEAEDVGVYYCSQNTHVPPTFGQGTKVEIE
notes: copies: 2 + 2
With B4, the relative binding activity in assay [1] is 42 % of GpH7-B3/GpL16-k0; in assay [2] it was 72 % of GpH7-B3/GpL16-k0; in assay [3], 72 % of GpH7-B3/GpL16-k0; in assay [4] it was 93 % of GpH7-B3/GpL16-k0; in assay [5], 63 % of GpH7-B3/GpL16-k0.

B5: GpH7-B3 variant L235K/GpL16-k0 (antibody, human IgG1)
heavy: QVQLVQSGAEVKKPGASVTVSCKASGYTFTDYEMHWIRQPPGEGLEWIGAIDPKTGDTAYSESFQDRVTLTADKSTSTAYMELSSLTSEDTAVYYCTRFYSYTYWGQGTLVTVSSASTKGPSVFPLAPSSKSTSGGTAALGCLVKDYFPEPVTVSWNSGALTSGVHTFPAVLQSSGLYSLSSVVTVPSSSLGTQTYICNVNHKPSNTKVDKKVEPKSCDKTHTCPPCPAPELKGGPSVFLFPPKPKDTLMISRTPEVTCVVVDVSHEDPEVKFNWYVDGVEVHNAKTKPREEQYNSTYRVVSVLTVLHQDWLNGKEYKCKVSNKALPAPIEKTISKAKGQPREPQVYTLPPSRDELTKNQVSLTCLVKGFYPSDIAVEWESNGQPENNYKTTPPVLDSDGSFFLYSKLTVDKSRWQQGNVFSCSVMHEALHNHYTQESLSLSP
light: DIVMTQSPLSLPVTPGEPASISCQASESLVHSNRNTYLHWYLQKPGQSPQLLIYKVSNRFSGVPDRFSGSGSGTDFTLKISRVEAEDVGVYYCSQNTHVPPTFGQGTKVEIE
notes: copies: 2 + 2
For B5, the relative binding activity is 6 % of GpH7-B3/GpL16-k0 in assay [1]; -5 % of GpH7-B3/GpL16-k0 in assay [2]; 0 % of GpH7-B3/GpL16-k0 in assay [3]; -1 % of GpH7-B3/GpL16-k0 in assay [4]; -3 % of GpH7-B3/GpL16-k0 in assay [5].

B6: GpH7-B3 variant L235I/GpL16-k0 (antibody, human IgG1)
heavy: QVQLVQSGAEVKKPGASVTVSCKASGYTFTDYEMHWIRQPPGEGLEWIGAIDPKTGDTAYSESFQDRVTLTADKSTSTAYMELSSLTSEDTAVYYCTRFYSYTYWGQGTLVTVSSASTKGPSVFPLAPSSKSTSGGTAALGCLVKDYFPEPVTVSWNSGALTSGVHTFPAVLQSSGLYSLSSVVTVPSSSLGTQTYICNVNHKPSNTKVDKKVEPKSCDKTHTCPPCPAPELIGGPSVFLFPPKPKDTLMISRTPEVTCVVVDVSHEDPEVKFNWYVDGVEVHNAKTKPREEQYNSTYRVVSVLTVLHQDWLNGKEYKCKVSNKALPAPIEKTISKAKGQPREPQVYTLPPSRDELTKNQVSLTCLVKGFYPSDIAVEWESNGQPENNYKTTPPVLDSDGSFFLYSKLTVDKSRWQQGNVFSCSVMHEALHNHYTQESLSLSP
light: DIVMTQSPLSLPVTPGEPASISCQASESLVHSNRNTYLHWYLQKPGQSPQLLIYKVSNRFSGVPDRFSGSGSGTDFTLKISRVEAEDVGVYYCSQNTHVPPTFGQGTKVEIE
notes: copies: 2 + 2
As for B6, the relative binding activity is 85 % of GpH7-B3/GpL16-k0 in assay [1]; 81 % of GpH7-B3/GpL16-k0 in assay [2]; 89 % of GpH7-B3/GpL16-k0 in assay [3]; 93 % of GpH7-B3/GpL16-k0 in assay [4]; 88 % of GpH7-B3/GpL16-k0 in assay [5].

B7: GpH7-B3 variant P238I/GpL16-k0 (antibody, human IgG1)
heavy: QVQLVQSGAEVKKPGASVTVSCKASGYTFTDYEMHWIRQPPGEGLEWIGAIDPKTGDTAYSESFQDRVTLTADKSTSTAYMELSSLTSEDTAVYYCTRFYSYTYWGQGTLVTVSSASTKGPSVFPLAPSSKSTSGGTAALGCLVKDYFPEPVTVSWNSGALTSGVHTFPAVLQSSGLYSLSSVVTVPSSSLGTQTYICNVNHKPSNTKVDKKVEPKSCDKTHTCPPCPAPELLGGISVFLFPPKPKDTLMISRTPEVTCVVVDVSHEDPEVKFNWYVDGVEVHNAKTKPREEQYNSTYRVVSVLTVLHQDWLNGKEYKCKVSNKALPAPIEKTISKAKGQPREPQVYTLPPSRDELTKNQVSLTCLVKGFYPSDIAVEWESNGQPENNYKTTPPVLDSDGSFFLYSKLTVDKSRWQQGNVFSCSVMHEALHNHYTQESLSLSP
light: DIVMTQSPLSLPVTPGEPASISCQASESLVHSNRNTYLHWYLQKPGQSPQLLIYKVSNRFSGVPDRFSGSGSGTDFTLKISRVEAEDVGVYYCSQNTHVPPTFGQGTKVEIE
notes: copies: 2 + 2
For the molecule B7, the relative binding activity in assay [1] was 3 % of GpH7-B3/GpL16-k0; in assay [2], 43 % of GpH7-B3/GpL16-k0; in assay [3], 19 % of GpH7-B3/GpL16-k0; in assay [4] it was 99 % of GpH7-B3/GpL16-k0; in assay [5], 31 % of GpH7-B3/GpL16-k0.

B8: GpH7-B3 variant P238H/GpL16-k0 (antibody, human IgG1)
heavy: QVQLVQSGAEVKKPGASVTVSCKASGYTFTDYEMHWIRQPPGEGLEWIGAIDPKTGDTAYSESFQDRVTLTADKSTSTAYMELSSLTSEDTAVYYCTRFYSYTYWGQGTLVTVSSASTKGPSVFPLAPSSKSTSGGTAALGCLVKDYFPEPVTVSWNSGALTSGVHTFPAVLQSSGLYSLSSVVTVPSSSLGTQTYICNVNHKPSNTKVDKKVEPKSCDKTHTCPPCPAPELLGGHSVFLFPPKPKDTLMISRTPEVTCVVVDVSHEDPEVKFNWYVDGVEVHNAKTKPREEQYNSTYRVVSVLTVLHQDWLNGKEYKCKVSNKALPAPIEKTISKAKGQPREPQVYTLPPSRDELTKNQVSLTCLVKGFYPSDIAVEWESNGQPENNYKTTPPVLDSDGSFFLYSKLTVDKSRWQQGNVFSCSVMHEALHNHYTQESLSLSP
light: DIVMTQSPLSLPVTPGEPASISCQASESLVHSNRNTYLHWYLQKPGQSPQLLIYKVSNRFSGVPDRFSGSGSGTDFTLKISRVEAEDVGVYYCSQNTHVPPTFGQGTKVEIE
notes: copies: 2 + 2
In the case of B8, the relative binding activity is -1 % of GpH7-B3/GpL16-k0 in assay [1]; 25 % of GpH7-B3/GpL16-k0 in assay [2]; 3 % of GpH7-B3/GpL16-k0 in assay [3]; 80 % of GpH7-B3/GpL16-k0 in assay [4]; 19 % of GpH7-B3/GpL16-k0 in assay [5].

B9: GpH7-B3 variant L235Q/GpL16-k0 (antibody, human IgG1)
heavy: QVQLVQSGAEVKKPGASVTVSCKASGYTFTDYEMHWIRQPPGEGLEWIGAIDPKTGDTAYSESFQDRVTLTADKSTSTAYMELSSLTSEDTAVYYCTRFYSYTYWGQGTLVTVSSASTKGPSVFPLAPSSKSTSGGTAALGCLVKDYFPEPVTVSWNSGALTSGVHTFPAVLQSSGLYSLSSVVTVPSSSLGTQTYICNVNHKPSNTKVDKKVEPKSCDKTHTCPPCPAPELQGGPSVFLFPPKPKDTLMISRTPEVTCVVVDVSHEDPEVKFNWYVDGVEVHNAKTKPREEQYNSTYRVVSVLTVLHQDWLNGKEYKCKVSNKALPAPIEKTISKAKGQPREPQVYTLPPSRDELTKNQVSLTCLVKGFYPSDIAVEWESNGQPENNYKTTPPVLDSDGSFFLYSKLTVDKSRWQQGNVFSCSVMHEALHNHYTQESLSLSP
light: DIVMTQSPLSLPVTPGEPASISCQASESLVHSNRNTYLHWYLQKPGQSPQLLIYKVSNRFSGVPDRFSGSGSGTDFTLKISRVEAEDVGVYYCSQNTHVPPTFGQGTKVEIE
notes: copies: 2 + 2
For the molecule B9, the relative binding activity in assay [1] was 35 % of GpH7-B3/GpL16-k0; in assay [2] it was 28 % of GpH7-B3/GpL16-k0; in assay [3] it was 34 % of GpH7-B3/GpL16-k0; in assay [4], 29 % of GpH7-B3/GpL16-k0; in assay [5], 20 % of GpH7-B3/GpL16-k0.
